Data taken from US20230248770A1 (published 2023).

Assays:
[1] = molecular target: T1, WT1 peptide on HLA-A*02:01 (human); experiment: activation reporter or marker
T1 peptide: RMFPNAPYL

[2] = molecular target: T2, NEF peptide on HLA-A*24:02 (human); experiment: cytokine release
T2 peptide: RYPLTFGWCF

B1: FE11 γδTCR (TCR, V domains shown)
Vgamma: SSNLEGGTKSVTRPTRSSAEITCDLTVINAFYIHWYLHQEGKAPQRLLYYDVSNSKDVLESGLSPGKYYTHTPRRWSWILILRNLIENDSGVYYCATWDRPEIYYKKLFGSGTTLVVT
Vdelta: not shown
B1: no recognition [1]; no recognition [2].
